# B1: YqjD (natural protein, E. coli, UniProt P64581 1-101, looked up)
# chain: MSKEHTTEHLRAELKSLSDTLEEVLSSSGEKSKEELSKIRSKAEQALKQSRYRLGETGDAIAKQTRVAAARADEYVRENPWTGVGIGAAIGVVLGVLLSRR
# notes: source: endogenous, E. coli (MG1665) lysate, log phase and stationary phase
# Target: T1, ElaB (E. coli, UniProt P0AEH5 1-101)
# T1 construct: ElaB, E. coli, paralogue of YqjD, inner membrane-associated; source: endogenous, E. coli (MG1665) lysate, log phase and stationary phase
# T1 sequence (looked up): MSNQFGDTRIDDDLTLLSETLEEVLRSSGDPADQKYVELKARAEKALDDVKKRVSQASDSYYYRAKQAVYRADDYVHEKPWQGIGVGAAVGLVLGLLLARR
# Assay: cross-linking; quantitative CXMS: log phase and stationary phase E. coli (MG1665) lysates (100 µg each, 50 mM HEPES pH 8.0, 150 mM NaCl) cross-linked with [d0]-/[d6]-bAL2 at RT for 1 hr, forward and reverse labelling; pLink, pQuant
# Details: partners not purified
binder,measurement,value
B1,fold increase of the cross-link in the stationary phase over the log phase,≥ 10 fold
